Results: the domain aggregation screens of Martell et al. (2025)

Test: soluble fraction after stress (log2 fold change); higher = more stays soluble; pooled small domains, quantitative proteomics
Conditions: stress: pH 4
Outline: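 With high-throughput quantitative proteomics, pooled custom libraries of small protein domains were measured after pH 4 stress. Each domain's soluble amount after the stress gives a fold change taken as aggregation propensity. Higher log2 values mean more of the domain stayed soluble.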

HMSFNNHYEILQVQPSADREVIEAAAKALLKKHHPDLGGRNTITSHIVQAKKVLTDTSQRADFDARLRERL
soluble fraction (log2): 0.165

HMINIFKVKKAMEEIFASEWEDSPYTDQKISQILWSRGFSVSTGLVEKYRGQMGVPDANSRLNLN
soluble fraction (log2): -1.39

HMQALDNNDALEEIIKKVITENPSQVTEFRNGKDSLMNFLVGKVMAASGGKANPKTLPETIEKIIK
soluble fraction (log2): 0.277

HMPTLLGYKHILSAWNPDTNTVFRTSYGYDGEYGSREEAMQALIKMIQEGGKATPRGIEESEVPIY
soluble fraction (log2): 0.0029

HMINITALVKQLGGVDISKFNSAFKLLQQGKPLNTISNKVMADTFVALMKNSDEALNTKFRAAFKKI
soluble fraction (log2): 0.0515

HMGETAFRYALPLDQGEALKRSHVIRQSISPDDALATRVTVLEDVLDQTLRQPVQAGEVLLEDHFTR
soluble fraction (log2): -0.682

HMEEHSLRKQEMLRIIEALEQLTPKEKTVVVLYYFKGVLFKDIAMLLDVTEGRISQLHTAAMGRLKKLMD
soluble fraction (log2): -0.632

HMHDITPAVAETFKQLRAERGLSLSQAAQLTGVSKAMLGQIERGQSSPTVSTLWKIATGFNVAFSVFL
soluble fraction (log2): -0.309

HMGGELLSLRRIGTLTGISYPTLLRYVARYGEQIPQTGTGRSRRFPPAAVPVFQELRATRGRAPRATA
soluble fraction (log2): 0.0768

HMNANTILNSQRILTQLGFNPGPIDGAFGAKTKGALNAFYTSIGKSYDGLLDSNELVELQKALDVSGLKN
soluble fraction (log2): -0.198

HMHQAADFAGFITFNKDGVEQFSFGKYKNQTVVSVLEKDPGYYSWIQNADFPLYTKKILTAIRLAM
soluble fraction (log2): -0.0054

HMIERLVEFVHTLRHSGVRVSMAEAMDAAEALRHTPITERQIFKTALQSVLVKEHQDIPAFDAAFERFFL
soluble fraction (log2): -0.728

HMDPSDQLYTVPPSAEGLRLDLFLVQHVPHMTRALATQLTGAGQVRVNGRRAKKGDRLPSGAQVRLEQAP
soluble fraction (log2): -0.138

HMREFQVMKQELQEMVHQRLDMSTELSDEAIGDVIDEVIMEKSRNMYISSVTKLTLRQELFNAIR
soluble fraction (log2): -2.14

HMANFGSILRNLRISRDITQSELAAKLGVSRSTVGMYETGAREPDFEAMEAIADTFNVDMDYLVGRSQ
soluble fraction (log2): -0.326

HMADDFISTLFSEGIIIDTEVKQFAERQGSPLQFVRHIASNLPEPRDIITMGEVRSVMREGA
soluble fraction (log2): -1.04

HMHYELTPDAEKQLSALGLTAELVERILEEANDRRPIPGTNRTVYSLHGYSVEFSNTNHKIVSVRKG
soluble fraction (log2): 0.343

HMDAPKTGSLVVSKAVNYGSWSGFTFRLHGTSDKGNSVDVTATTGSDGKAYFKDIEIGTYTLEEVN
soluble fraction (log2): -1.19

HMEGVNLTVQEAKQMAAIIAPLLKQGQSPYQIVTNHPELGISEKTLYNYIENDVFHEIAGITVMDL
soluble fraction (log2): -0.881

HMSNIQLAANLQRLRKDHHFTQTQFSKKLNISRQAYSNYETGKRIPDLDIIIRIANIYHISLENLL
soluble fraction (log2): -0.203

HMKQYVEPASETEKMVVELWEKVLLTEKIGMHDDFFELGGHSLKAMRLISLYHQEFNVRLSLKSLFEKLK
soluble fraction (log2): -1.07

HMERNAEDFAAKYQEIYQDMFRFALYTLKNRQEAEDVVSETVLDAWKGIEGLKNESAFSAWMFRILVNK
soluble fraction (log2): -0.325

HMNVEVDSIGDDDFLVKVSAGTSTEHRVTLTDAYWEQIWSSSLPKKEIISLSFAFLLEREPNSSIMRT
soluble fraction (log2): -0.937

HMNDADAHASVDAALKHLEALAETTPEVRAALELVRRGPDGRVTVDSFARVAEALREISIAVGAS
soluble fraction (log2): -0.632

HMKQAVESAEAIFEEIARIKKLSLVKSEAEEIARKTGLQKFTIASQLLKNQHAYEMDESEIASLWDKKI
soluble fraction (log2): -0.594

HMATESYYVLKADVPAKTLVTQEMVEEIKVSKGGAPVNSIKIDNIKEKGVYTSIPLLKGDVLSASNTG
soluble fraction (log2): -0.358

HMDSILMPGVVNKELREALAILKNEGIGWADPEYASSTVTRNYVISTDPVEGIELAPGQKVRLVVSLGPKP
soluble fraction (log2): 0.153

HMNLGDLYVIMEIAGQRDDVSARLMNREGQTFLVKTGTKLKSGDVVKEITPTYIKTDHDGEEAFLYF
soluble fraction (log2): -1.17

HMSASEKLFEARKNLNIVNVLGKNPVDRYDIVKILKHGDHYHIYDSKGNEGITYTNPKSLYPEAEFGEYQG
soluble fraction (log2): -0.228

HMPKHHIESVIPENFAGERLDKVLAVLWGTFSRAQLTRWIRDGSLLLDGHKVKPNTKVDGSEKIVLQAEVA
soluble fraction (log2): 0.0479

HMSSPEAAEVQRLLKDGQHVQALKIIDESLARNPKDPQMRFRRGVALSMLDRKNEALAVFQKLVED
soluble fraction (log2): -0.0849

HMLELTGEEEFVIRTLTRQGDLHINALVVETDIPINRMISLLFELEMKGVVKALVGGVYHLLG
soluble fraction (log2): -1.58

HMGKEWPTPDNVEEWKKLVKKARLWPIQADQAQSEETRERNRKKWELFVAYAKRFGYRAGIGETGKPFVNN
soluble fraction (log2): 0.164

HMTQLPEVPVERGMVLEEVQSGWVGAVTRVEKSGGMHVVALEDRRGKSRSFRLGFGFLLEGQPIRLMPPAP
soluble fraction (log2): -0.882

HMLETILQIGKDGVGENLVKQVNDALEARELIKGRVLDNNLELDARTAAQILAKATRSEVVQVIGTKFV
soluble fraction (log2): 0.0332

HMEVEIPSREALLGLVQKHLKPVSFDEFVSHFKLGDERQQVGIKRRLRAMERDGQLVYTKANSYGLPDRM
soluble fraction (log2): -0.197

HMDVPNLVGKTLEEAENELKKLNIRYNVTERADEAPKDTVIEQSPKPYEAMEPGTVVNLVISSGPA
soluble fraction (log2): -0.912

HMVINQRKLNLLSIYSSGSEKRAIILFPTGQTKFVKVGDTLDGGRVAAIGTSEIRYLKGGNNLVLRIPG
soluble fraction (log2): 0.173

HMVEVPNVSNLTLEQAENKLIQQGLQVKLEGQGEKVVAQIPQPGAVVNKKSTVILF
soluble fraction (log2): 0.0373

HMNIAEIGQKVAQQRVALGISQERLAKLSDLSRSTIHHLEHGTLHEIGAAKLFKLLSLLDIQLK
soluble fraction (log2): 0.159

HMGYDDLEPFDANGRLRWSDQELVLAFGRHRGATLRTLELNDPSYLRWLLSGNGPLEQQDIQRLEQILES
soluble fraction (log2): -1.44

HMKIIDDIQEFAGVTKTQNTFFHIFNHLHQNGKQLILTSDRAPVMLQGMEERLLTRFKWGLVAELE
soluble fraction (log2): 0.158

HMEKRLDYTFGLNKEQLLYLTKSIKDGDFYNVSFIDGTEKKLNRVGSTKEVHKYVNFLMTNDGIVKK
soluble fraction (log2): 0.0133

HMKQLIGYSVIDIKMGKLGEISFVNSKTAQALIHVSKDGKGFYFPWHKQFVKNIDAEKGIMEVEIPKEFLD
soluble fraction (log2): -0.85

HMIYNSGTTDSRGEAIVGGYLVTVTDTDTKDPVANAAVTLHKDNSISIRLPNSRLLDYADQTTVTVQLV
soluble fraction (log2): -0.00411

HMLTRYNVNYYYNGEILQRRKVAEGSAAERITYLSGSLEVTDWYTEADLLRKYDFTEPVTGDLNLYAFARI
soluble fraction (log2): -0.556

HMDKKTMFNEALAKLVSYATAHDNLITMEDVKSFFNGLIDDDSQYKLIYDYLSINKIEIKGFT
soluble fraction (log2): -0.704

HMNNIIYLIANKLDVGKRLDQFITIRTEFSRQRVINLIEDGYVKLNNKIINLKKYKIKGDEKIEITIPEIR
soluble fraction (log2): -1.49

HMSSSMDAIAEIIRSIPRGDHLTAPEVYELAKQRGLKLSLSTVYRTLNKLKVVGDVITVSGDRGLRYESV
soluble fraction (log2): 0.215

HMENVALYIRLKSMASVYDDVHGYNIEWIKSMIGLSIDIEKLRTVLEDVSWITKVEEDVYSFSKNAKPFE
soluble fraction (log2): -2.32

HMQTAAANPSPESILQAREAAGLSQSEAGALIYSGLRSWQHWEWGTRRMHPGLFELFLKKTGQI
soluble fraction (log2): -1.02

HMSNFGERLRALRQDRQMTLQQASKVTGVAQSTLSKMENNQLSPTFNLMQKLAIGLGIDMPQLFAPVK
soluble fraction (log2): -0.18

HMRYLMPDLVNRRYEPVRSLLEARGIRFGNVIFEPYEGLPPGIVLRQDPPAGHPLPRRRTVSLVVSGPGGR
soluble fraction (log2): 0.109

HMGAVDIATARQLISEIGLPIMLKAEGGGGGRGIFAIHNEAELEDAFFKASTMAQASFGNPRLFVEKF
soluble fraction (log2): -0.985

HMDAYSYFIRTYPLVDDPLIGDIRRIFAETHDGNPAGDADVRHILWRLLFERELYPTLDEATADWY
soluble fraction (log2): -1.86

HMNREMLVHAIGQLKEKYASALELKYWHGFTEREIAAFLNISEKAANSRLVRGRVMLRKLLE
soluble fraction (log2): 0.139

HMSNEYLMPNLIGMSWDEAKSKYSQYMTLVPEQEWSEVTKDQIFDQEYPEGRKVKIGTEVTVKVSMGI
soluble fraction (log2): 0.228

HMGPLSDRSVADWLLRLGLADTANNRLLLQVMHAAGLPLERTAVRAMRETAAGRPEGTDAREWLQAAAAAQ
soluble fraction (log2): -0.326

HMINNINKLPETQFIKLFANIFENSQFIAVALYKKKGDGFSDFKDLINKIMDIFENTTKEKKLKILNA
soluble fraction (log2): -0.173

HMGIDISAFSETALQVLRLQAAGYTAKEISEKLHITPRTVKYHASQNYRKLDAKNLVDAVQIAQALHI
soluble fraction (log2): -0.171

HMGNSRNDQDLQTQIIKILAEGPASSRTLIETLTIEDEAALLKTLKRLLMNKKISLTPSNLYKL
soluble fraction (log2): -0.66

HMDSDFIKIEVLFNERNRLDLKAMMEASGFTDRGQFLSIMADLTGDENWDRNLDRGDIFYLPRSFTI
soluble fraction (log2): -1.6

HMPKRYAGPDIIAIYGSDVFFRVGSGDGLMVIPVGRSMDNIEVVSVDAPRSVELMWKDGGPFTVPV
soluble fraction (log2): -0.218

HMVVTRVKAIDVVNIRKSDSETADKLGKAAVGDEFDLLEKKGNGWSKISYEGGEAYIKSEFLEPSE
soluble fraction (log2): 0.034

HMKSSTEIIYSDFLREVSNGQISEVTIQGDFVRGLFLSGSSFQTYAPKDSNLINILRDKKVRIKVHPP
soluble fraction (log2): -0.11

HMEDTSTLSIKHKIKELINQESPQAILSDDKLVELLAAQGIKIARRTIAKYRETMNIPTSAERKRQKRPP
soluble fraction (log2): 0.275

HMTDVGLEAAKAAALKHAGLSADQVTGLTAKLDWDDGQRVYEVDFWQGSTEYEYEINADGTVRQYESEAH
soluble fraction (log2): -0.469

HMQNYLEVLRLHELGMGQRKIAQQVHTSRDTIRKIIAIAENQGLNYSNLIGKTDNELSKVFG
soluble fraction (log2): 0.0958

HMPSSFLVKVTADALNIRSGPGVANRITGTIKDKGTYTIVDTKDDWGKLKSGVGWIHLGYTKRLD
soluble fraction (log2): 0.0923

HMAETLLWADAAQEGLNRIVAAQPILVRISAAKRLRDASEQAAKAAGVSTVEIGHVQHASESLQFGDA
soluble fraction (log2): -0.0823

HMEPDEESVRLKEEILSRIDYWHTTMPYMGTRKLAAKLRTEGYAVGRKLVRTYMREMGIHAVYP
soluble fraction (log2): -0.293

HMRAFTPSEAQVAHARRVMEAFWQHQREGHGAFALDGKMVDAPIVKAAARVLARAGLQDPNHPIHLA
soluble fraction (log2): 0.0106

HMRIWTISDLYKNVEDKKVSLAVFSEDNDSNKVNVLDINGEEHSVNLLKADLPTLVDLFRKNDVRFAVRSN
soluble fraction (log2): 0.259

HMGHKKLTIELQDEIIVLPKELEKYNLTVSDDKTSLIYTYKSRGEKTGITDLLRDIKDAGLRLKDLITEQ
soluble fraction (log2): -0.0229

HMEFEIGQEDSKKSVKQFLYNTLRLSHGQVTALKRQERGILLNGERVFVTALLQEGDRLSLLLE
soluble fraction (log2): -1.24
